T1: B-Cell maturation antigen (BCMA) on BCMA-expressing multiple myeloma cell lines (human, UniProt Q02223 1-184)
T1 sequence (looked up): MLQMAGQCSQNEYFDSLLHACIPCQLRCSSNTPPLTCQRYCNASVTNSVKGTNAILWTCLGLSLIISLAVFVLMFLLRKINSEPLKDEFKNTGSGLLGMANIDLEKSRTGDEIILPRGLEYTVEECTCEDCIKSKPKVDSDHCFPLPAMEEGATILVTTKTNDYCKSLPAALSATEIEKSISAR


Experiments:
[1] = biological target: B-Cell maturation antigen (BCMA) on BCMA-expressing multiple myeloma cell lines (human) (UniProt Q02223); experiment: cell-based or functional assay
[2] = biological target: T1, B-Cell maturation antigen (BCMA) on …; experiment: cell-based or functional assay
[3] = biological target: T1, B-Cell maturation antigen (BCMA) on …; experiment: flow cytometry-binding assay on MM.1S Luc and NCI-H929 cells
[4] = biological target: T1, B-Cell maturation antigen (BCMA) on …; experiment: cell-based or functional assay; remark: listed apart in the source

Molecule | cytotoxic potential EC50, KMS-11 cells, 96 h [1] | cytotoxic potential EC50, MM.1S Luc cells, 96 h [1] | cytotoxicity EC50 [M], MM.1S Luc cells, 96 h [2] | cytotoxicity EC50 [M], MM.1S cells, 96 h [2] | cytotoxicity EC50 [M], NCI-H929 cells, 96 h [2] | cytotoxicity EC50 [M], OPM-2 cells, 96 h [2] | cytotoxicity EC50 [M], U266B1 cells, 96 h [2] | binding result [3] | cytotoxic potential EC50, KMS-11 cells, 96 h [4] | cytotoxic potential EC50, MM.1S Luc cells, 96 h [4]
monomethyl auristatin F derivative J22.9-ISY-MMAF (antibody) | 0.626 nM | 0.481 nM |  |  |  |  |  |  |  | 
J22.9-ISY-D265C-30.1699 (antibody, V domains shown, alpha-amanitin-linker HDP 30.1699 (cathepsin B cleavable linker, maleimide) on the engineered Cys 265) VH: EVQLVESGGGLVQPGGSLRLSCAASGFTFSRYWISWVRQAPGKGLVWVGEINPSSSTINYAPSLKDKFTISRDNAKNTLYLQMNSLRAEDTAVYYCASLYYDYGDAYDYWGQGTLVTVSS VL: EIVMTQSPATLSVSPGERATLSCKASQSVESNVAWYQQKPGQAPRALIYSASLRFSGIPARFSGSGSGTEFTLTISSLQSEDFAVYYCQQYNNYPLTFGAGTKLELKR |  |  | 6.5e-11 M | 1.7e-10 M | 7e-11 M | 7.9e-09 M | 7.3e-11 M |  |  | 
Thiomab antibody J22.9-ISY-D265C (antibody, human IgG1, kappa, V domains shown, Unconjugated antibody; also called thiomab J22.9-ISY-D265C) VH: EVQLVESGGGLVQPGGSLRLSCAASGFTFSRYWISWVRQAPGKGLVWVGEINPSSSTINYAPSLKDKFTISRDNAKNTLYLQMNSLRAEDTAVYYCASLYYDYGDAYDYWGQGTLVTVSS VL: EIVMTQSPATLSVSPGERATLSCKASQSVESNVAWYQQKPGQAPRALIYSASLRFSGIPARFSGSGSGTEFTLTISSLQSEDFAVYYCQQYNNYPLTFGAGTKLELKR |  |  |  |  |  |  |  | binds |  | 
amanitin-conjugate J22.9-ISY-D265C-30.2115 (antibody, V domains shown, amatoxin-linker HDP 30.2115 (cathepsin B cleavable linker, maleimide) on the engineered Cys 265) VH: EVQLVESGGGLVQPGGSLRLSCAASGFTFSRYWISWVRQAPGKGLVWVGEINPSSSTINYAPSLKDKFTISRDNAKNTLYLQMNSLRAEDTAVYYCASLYYDYGDAYDYWGQGTLVTVSS VL: EIVMTQSPATLSVSPGERATLSCKASQSVESNVAWYQQKPGQAPRALIYSASLRFSGIPARFSGSGSGTEFTLTISSLQSEDFAVYYCQQYNNYPLTFGAGTKLELKR |  |  | 2.3e-10 M | 2.9e-10 M | 9.7e-11 M | 1.4e-07 M | 1.4e-10 M |  | 1.72 nM | 0.557 nM
